Laboratory results reported in patent US20020028202A1 (Biogen, published 2002).

Tests used:
Assay in all cases: staining of transfected COS-7 cells, FACS
[1] = molecular target: T1, human gc chain mutant, FNP replaced by Ala (Domain 2 Loop FQ), myc-tagged, on COS-7 cells (human, UniProt P31785 23-369)
T1 construct: whole, on cells; not shown: 9 amino acid myc tag at the 5' end of the construct
T1 sequence (looked up): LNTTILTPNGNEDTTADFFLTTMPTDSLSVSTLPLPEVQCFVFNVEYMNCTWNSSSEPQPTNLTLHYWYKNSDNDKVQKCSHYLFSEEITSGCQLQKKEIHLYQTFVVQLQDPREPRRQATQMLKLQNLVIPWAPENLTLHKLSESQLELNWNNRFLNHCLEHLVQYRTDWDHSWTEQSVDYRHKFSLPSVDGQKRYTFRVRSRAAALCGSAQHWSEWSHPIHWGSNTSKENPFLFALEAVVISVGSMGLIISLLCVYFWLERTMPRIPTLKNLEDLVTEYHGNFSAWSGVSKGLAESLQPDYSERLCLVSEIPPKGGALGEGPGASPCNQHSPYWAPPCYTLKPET
Method: (§1) COS-7 cells are transiently transfected with 20 ug of DNA encoding the gc chain mutant or wildtype cDNA and 180 ug of herring sperm carrier DNA. After 2-3 days, COS-7 cells are harvested and analyzed by immnunofluorescent staining with anti-gc chain mAbs. MAbs are used at 10 ug/ml in PBS-1% BSA-0.02% sodium azide and allowed 30 minutes to bind to 1×10⁶ COS-7 cells. Cells are then washed 2 times, and bound mAb is detected with PE-conjugated goat anti-mouse Fc specific antibodies. The % of positive cells staining with the anti-gc chain mAb over an irrelevant control Ig is determined for a given gc chain mutant and for wildtype gc chain. […] Data are adjusted for any differences in level of expression of a mutant vs. wildtype constructs by measuring the binding of a mAb specific for a 9 amino acid myc tag engineered at the 5′ end of each gc chain construct. […] Values reduced from 100% indicate amino acid mutations which affect mAb binding.
(§2) The value “100%” indicates no effect of mutation and lower percentages indicate greater losses in binding as a result of the sequence change.

[2] = molecular target: T2, human gc chain mutant, SAQ replaced by Ala (Domain 2 Loop FQ), myc-tagged, on COS-7 cells (human, UniProt P31785 23-369)
T2 construct: whole, on cells; not shown: 9 amino acid myc tag at the 5' end of the construct
T2 sequence (looked up): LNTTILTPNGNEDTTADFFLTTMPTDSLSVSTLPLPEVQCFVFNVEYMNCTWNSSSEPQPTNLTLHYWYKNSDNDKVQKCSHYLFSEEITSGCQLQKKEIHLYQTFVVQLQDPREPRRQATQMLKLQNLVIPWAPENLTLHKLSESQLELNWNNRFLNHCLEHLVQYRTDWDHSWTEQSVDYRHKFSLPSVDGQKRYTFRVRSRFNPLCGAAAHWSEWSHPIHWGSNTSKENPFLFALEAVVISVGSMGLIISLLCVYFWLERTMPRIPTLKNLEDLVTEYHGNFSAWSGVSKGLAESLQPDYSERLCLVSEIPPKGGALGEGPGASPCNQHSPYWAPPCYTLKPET
Method: as §1, §2

[3] = molecular target: T3, human gc chain mutant, SDN replaced by Ala (Domain 1 Loop CC), myc-tagged, on COS-7 cells (human, UniProt P31785 23-369)
T3 construct: whole, on cells; not shown: 9 amino acid myc tag at the 5' end of the construct
T3 sequence (looked up): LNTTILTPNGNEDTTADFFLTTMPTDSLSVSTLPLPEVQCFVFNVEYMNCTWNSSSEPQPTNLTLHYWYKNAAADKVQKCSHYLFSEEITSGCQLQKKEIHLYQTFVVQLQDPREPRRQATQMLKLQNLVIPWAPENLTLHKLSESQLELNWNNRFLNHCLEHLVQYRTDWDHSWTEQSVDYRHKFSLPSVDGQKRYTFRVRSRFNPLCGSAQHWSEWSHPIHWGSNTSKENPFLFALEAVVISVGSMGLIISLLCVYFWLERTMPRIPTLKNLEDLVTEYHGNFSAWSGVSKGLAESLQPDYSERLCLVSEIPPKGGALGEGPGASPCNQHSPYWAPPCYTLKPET
Method: as §1, §2

[4] = molecular target: T4, human gc chain mutant, PW replaced by Ala (interdomain residues), myc-tagged, on COS-7 cells (human, UniProt P31785 23-369)
T4 construct: whole, on cells; not shown: 9 amino acid myc tag at the 5' end of the construct
T4 sequence (looked up): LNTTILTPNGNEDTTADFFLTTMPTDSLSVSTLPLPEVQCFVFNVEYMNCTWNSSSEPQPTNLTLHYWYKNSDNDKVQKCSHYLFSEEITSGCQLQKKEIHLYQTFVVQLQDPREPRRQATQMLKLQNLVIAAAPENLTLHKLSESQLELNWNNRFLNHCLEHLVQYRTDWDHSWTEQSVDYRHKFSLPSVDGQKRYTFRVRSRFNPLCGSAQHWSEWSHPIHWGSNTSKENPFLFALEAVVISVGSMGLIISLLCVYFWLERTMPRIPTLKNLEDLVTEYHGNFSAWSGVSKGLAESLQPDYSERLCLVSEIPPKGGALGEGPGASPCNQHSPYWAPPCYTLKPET
Method: as §1, §2

[5] = molecular target: T5, human gc chain mutant, LNH replaced by Ala (Domain 2 Loop BC), myc-tagged, on COS-7 cells (human, UniProt P31785 23-369)
T5 construct: whole, on cells; not shown: 9 amino acid myc tag at the 5' end of the construct
T5 sequence (looked up): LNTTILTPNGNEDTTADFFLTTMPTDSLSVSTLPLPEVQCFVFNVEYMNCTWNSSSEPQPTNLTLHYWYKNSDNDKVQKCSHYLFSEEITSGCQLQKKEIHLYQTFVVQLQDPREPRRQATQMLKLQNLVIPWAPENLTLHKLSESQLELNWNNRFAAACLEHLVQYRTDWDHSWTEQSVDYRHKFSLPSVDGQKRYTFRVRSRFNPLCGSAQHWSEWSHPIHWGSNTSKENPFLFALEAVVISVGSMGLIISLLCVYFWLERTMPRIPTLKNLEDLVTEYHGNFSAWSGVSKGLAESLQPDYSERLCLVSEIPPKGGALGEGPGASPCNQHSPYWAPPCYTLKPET
Method: as §1, §2

[6] = molecular target: T6, human gc chain mutant, LEH replaced by Ala (Domain 2 Loop BC), myc-tagged, on COS-7 cells (human, UniProt P31785 23-369)
T6 construct: whole, on cells; not shown: 9 amino acid myc tag at the 5' end of the construct
T6 sequence (looked up): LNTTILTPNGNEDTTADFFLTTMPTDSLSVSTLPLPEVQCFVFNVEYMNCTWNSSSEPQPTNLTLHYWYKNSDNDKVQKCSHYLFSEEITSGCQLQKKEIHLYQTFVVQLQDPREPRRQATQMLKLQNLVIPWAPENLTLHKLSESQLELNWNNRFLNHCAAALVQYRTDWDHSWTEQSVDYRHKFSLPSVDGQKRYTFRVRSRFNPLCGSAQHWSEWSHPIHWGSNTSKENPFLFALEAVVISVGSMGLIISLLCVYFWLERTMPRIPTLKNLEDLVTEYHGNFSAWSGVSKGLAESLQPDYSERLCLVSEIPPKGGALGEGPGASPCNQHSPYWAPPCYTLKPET
Method: as §1, §2

B1: CP.B8 monoclonal antibody (murine anti-human gc chain, hybridoma ATCC HB-12107) (antibody, V domains shown)
VH: LQESGPGLVAPSQSLSITCTVSGFSLTSYGVHWVRQPPGKGLEWLGVIWAGGSTNYNSALMSRLNINRDNSKSQIFLKMNSLQTDDTAIYYCAREGSTVDSMDYWGQGTTVT
VL: DIVMTQSHKFMSTSVGDSITITCKASQDVTTAVAWYQQKPGQSPKLLIYWASTRHTGVPDRFTGSGSGTDYTLTISSVQAEDLALYYCQQHYITPWTFGGGTKLEI
notes: Used unconjugated and biotin-conjugated; also called CP.B8 mAb; mAb CP.B8
% binding to mutant gc chain/wildtype gc chain [1]: 28%
% binding to mutant gc chain/wildtype gc chain [2]: 111%
% binding to mutant gc chain/wildtype gc chain [3]: 68%
% binding to mutant gc chain/wildtype gc chain [4]: 73%
% binding to mutant gc chain/wildtype gc chain [5]: 88%
% binding to mutant gc chain/wildtype gc chain [6]: 0%
